Data set [1] has as its system recombinant 9-lipoxygenase (Mi9LOX). In words: Recombinant Mi9LOX enzyme kinetics with LA and ALA as substrates (conjugated diene formation at 234 nm). As to conditions: substrate of Mi9LOX. It is filed as biochemical, Mangifera indica. As to the method:
The recombinant 9-lipoxygenase (Mi9LOX) activity assays was initially carried out in 250 μl final volume of 100 mM phosphate citrate buffer pH 7.0 at 30° C. containing 200 μM substrate (LA/ALA) and 0.005% Tween20. The activity was measured by formation of the conjugated diene at absorbance of 234 nm, applying an extinction coefficient 25000 M^-1 cm^-1 for both the substrates. […] at 0th min for each reaction is considered as blank and subtracted from […] for given time (t). Similar activity assays were also performed with protein expressed from empty vector for the confirmation of Mi9LOX activity. Optimum pH was determined by calculating activity at varied range of pH in phosphate citrate buffer at 30° C., whereas temperature optima was determined by calculating recombinant 9-lipoxygenase activity in phosphate citrate buffer pH 7 at various temperatures. The purified recombinant 9-lipoxygenase having amino acid sequence as set forth in SEQ ID NO: 2 used linoleic acid (LA) and alpha linolenic acid (ALA) as substrates. Activity of the recombinant 9-lipoxygenase protein was measured spectrophotometrically at 234 nm by the formation of conjugated dienes. For unit calculations, molar extinction coefficient for hydroperoxy linoleate and linolenate was considered 25000 cm^-1M^-1. […]

The test system of data set [2] is ethylene treated mango fruits. In words: In vivo transient over expression of 9-lipoxygenase by Agrobacterium mediated infiltration. As to conditions: for δ-decalactone content compared to control tissue / δ-valerolactone content compared to control tissue: transient over expression, 2 days post infiltration, GC-FID. The arrangement: species or system Alphonso mango (Mangifera indica). How it is done: The full length polynucleotide sequence (SEQ ID NO: 1) encoding 9-lipoxygenase (SEQ ID NO: 2) was cloned into the pBI121 plant expression vector between CaMV 35S promoter and GusA gene. Terminal primers were designed (SEQ ID NO: 10 and SEQ ID NO: 11) to clone genes at BamHI restriction site. The resulted correct oriented construct pBI121+Mi9LOX and pBI121 empty vector were transformed in the Agrobacterium GV3101 strain for transient expression studies. Separate Agrobacterium cultures (5 mL) were initiated from individual colonies in YEB medium having appropriate antibiotics and incubated overnight at 28° C. This culture was transferred to 50 mL induction medium (0.5% beef extract, 0.1% yeast extract, 0.5% peptone, 0.5% sucrose, 2 mM MgSO4, […], 10 mM MES, pH 5.6) having appropriate antibiotics, and again grown overnight. On the succeeding day, cultures were recovered by centrifugation, resuspended in infiltration medium (10 mM MgCl2, 10 mM MES, […], pH 5.6) till optical density reaches 1.0. This suspension was again incubated at 28° C. with gentle agitation for 2 hrs. Over expression studies for 9LOX was carried out by Agrobacterium mediated infiltration in ethylene treated mango fruits at 3DAH stage by using hypodermic syringe (FIG. 4a). Equal volumes of pBI121+Mi9LOX and pBI121 construct containing cultures were used for infiltration in two different halves of same mango fruit separated by fruit stone. Set of five distinct mango fruits were used for the overexpression study as data set. Infiltrated fruits were kept at 25° C. for 2 days in 12 hr dark and 12 hr light conditions, after 2 days; part from each fruit halves was checked by the Gus staining (Kapila et al. 1997; Spolaore et al. 2001) to confirm expression of Mi9LOX under 35S promoter along with GusA, remaining part of fruit pulp stored in −80° C. until used for the lactone analysis by gas chromatography.
Thus, ethylene treated mangoes were ideal for Agrobacterium infiltration studies as Agrobacterium infiltrated fruits cannot be incubated for more than 2 days due to the risk of bacterial and fungal infection owing to fruit injury during infiltration. Two days post infiltration, a part of fruit was checked by Gus staining (FIG. 4b) to confirm expression of GusA along with the Mi9LOX gene. The remaining tissue was used for the lactone content analysis. The lactones were analysed from control and test region of fruits from Mi9LOX sets. Total 8 lactones viz. γ-butyrolactone, δ-valerolactone, γ-hexalactone, δ-hexalactone, γ-octalactone, δ-octalactone, γ-decalactone and δ-decalactone were detected from all the tissues in GC-MS analysis.

The subject of data set [3] is recombinant 9-lipoxygenase (Mi9LOX). Put plainly: pH and temperature activity profile of recombinant Mi9LOX. It is filed as biochemical, Mangifera indica. As to conditions: for Optimum temperature: phosphate citrate buffer pH 7. As to the method:
The recombinant 9-lipoxygenase (Mi9LOX) activity assays was initially carried out in 250 μl final volume of 100 mM phosphate citrate buffer pH 7.0 at 30° C. containing 200 μM substrate (LA/ALA) and 0.005% Tween20. The activity was measured by formation of the conjugated diene at absorbance of 234 nm, applying an extinction coefficient 25000 M^-1 cm^-1 for both the substrates. […] at 0th min for each reaction is considered as blank and subtracted from […] for given time (t). Similar activity assays were also performed with protein expressed from empty vector for the confirmation of Mi9LOX activity. Optimum pH was determined by calculating activity at varied range of pH in phosphate citrate buffer at 30° C., whereas temperature optima was determined by calculating recombinant 9-lipoxygenase activity in phosphate citrate buffer pH 7 at various temperatures. The purified recombinant 9-lipoxygenase having amino acid sequence as set forth in SEQ ID NO: 2 used linoleic acid (LA) and alpha linolenic acid (ALA) as substrates. Activity of the recombinant 9-lipoxygenase protein was measured spectrophotometrically at 234 nm by the formation of conjugated dienes. For unit calculations, molar extinction coefficient for hydroperoxy linoleate and linolenate was considered 25000 cm^-1M^-1. 9HpODE and 9HpOTrE products formed by the activity of Mi9LOX on LA and ALA respectively were confirmed by UPLC-HRMS. […] (FIG. 10(a)).

Setting [4] is: HRMS intermediate metabolite analysis.

What is called Km is the substrate concentration at which the rate is half of its maximum.

On to `CCCCC/C=C\C/C=C\CCCCCCCC(=O)O` [LA, linoleic acid], for which, in data set [1], the Km came out at 354 µM and the Vmax result is listed as “LA- 611.11 ± 55.55 μM min^−1mg^−1”.
Take “SEQ ID NO: 1: 2526 bp cDNA polynucleotide encoding 9-lipoxygenase, cloned in pBI121 and agroinfiltrated for transient over expression”: in data set [2], the “δ-decalactone content compared to control tissue” value was found to be 1.48 fold and the “δ-valerolactone content compared to control tissue” value is reported as 1.08 fold.

B1: Mi9LOX: Recombinant Mangifera indica 9-lipoxygenase from Alphonso mango, 841 aa, SEQ ID NO: 2 (protein)
chain: MGTVVLMKKNFLDFNDLSASVIDRVDELVGKRVSLQLVSAFNSDPTASNGLQGKVGEPAHLEEWITTITPLVAEESTFKVTFDWDEQIGVPGAFIIKNNHHSGFYLKSLTLEDVPNQGRIHFVCNSWVYPAKRYKKDRVFFTNKTYLPGEMPAPLQYYREQELLNLRGDGTGELQEWDRVYDYAYYNDLGDPDNGKPRPVLGGSTEYPYPRRGRTGRPPAKTDPETESRLPLLTSLNIYVPRDERFGHIKMSDFLGYALKSISQFIEPALESVFDSTPNEFDNFAQIYKLYDEGIQLPNDHFLDDIRNNIPLELLKEIFPTNEDNLFEFPTPQVIQGDRSAWRTDEEFAREMLAGPNPVIIRRVEEFPPRSKLDPELYGDQDSKITKQHIESYLDGLTVEQAIEKNELFILDHHDSLMTYLRRINTTSTKTYASRTILFLKEDGTLKPLAIELSRPHPDGDQYGAISNVYTPSEDEVEGSIWQLAKAYVAVNDSGVHQLISHWLKTHAAIEPFVIATNRQLSVLHPIYKLLQPHFRDTMNINAFARQIVINAGGILETTVFPAKYAMEMSSAIYKDWTFPDQALPEDLKNRGMAVEDPNSPHGLRLLIADYPYAVDGLEIWFAIKNWVKDYCYFYYKSDEMMQKDSGLQSWWKELREEGHGDKKDEPWWPKMQNREELIEACTIIIWIASALHAAVNFGQYPYAGFLPNRPTMSRRFMPEKGTPDYDELESNFDKVFLKTITAQRQTLLGIALIETLSRHSSDEMYLGQRDTPEWTSDKIPLQAFEDFGKKLGDIEVRIITRNHDNMLKNRVGPVNMPYTLLYPTSEGGLTGKGIPNSVSI
modifications: Protein sequence of 7- Dehydrocholestrol reductase (7-DHCR)
Consider B1, for which the “9HpODE in control and test tissues” value in data set [2] (setting [4]) is recorded as “not detected”. Moreover, the “increase in 9HpOTrE upon Mi9LOX over expression” value in data set [2] (setting [4]) is listed as 1.9 folds. Also, the “δ-decalactone content compared to control tissue” value in data set [2] was found to be 1.48 fold. Moreover, the “δ-valerolactone content compared to control tissue” value in data set [2] is reported as 1.08 fold. Besides, the “increase of Mi9LOX transcripts in test tissues as compared to the control tissues” value in data set [2] (upon Agrobacterium infiltration) is given as 1.73. Moreover, the “reduction in the activity” value is recorded as 75% in data set [3] (at 35° C.); 40% in data set [3] (at pH 5 and 9). Besides, the reduced activity in data set [3] (at 50° C.) was 69%. In data set [3] (phosphate citrate buffer at 30° C.), the “Optimum pH” value was 6.5. In addition, the figures for the Optimum temperature in data set [3] and in data set [3] (listed as recombinant 9-lipoxygenase) were 37 °C and 35 °C, respectively.

(Values after patent publication US11339381B2, “Nucleotide sequence encoding 9-lipoxygenase and recombinant constructs comprising the same” (Council of Scientific & Industrial Research, priority 2016, dated 2022).)
